Molecular target: HA-LIMK2 (pcDNA3-(HA)2-LIMK2) (UniProt P53671)
Sequence of UniProt P53671 (P53671 whole entry): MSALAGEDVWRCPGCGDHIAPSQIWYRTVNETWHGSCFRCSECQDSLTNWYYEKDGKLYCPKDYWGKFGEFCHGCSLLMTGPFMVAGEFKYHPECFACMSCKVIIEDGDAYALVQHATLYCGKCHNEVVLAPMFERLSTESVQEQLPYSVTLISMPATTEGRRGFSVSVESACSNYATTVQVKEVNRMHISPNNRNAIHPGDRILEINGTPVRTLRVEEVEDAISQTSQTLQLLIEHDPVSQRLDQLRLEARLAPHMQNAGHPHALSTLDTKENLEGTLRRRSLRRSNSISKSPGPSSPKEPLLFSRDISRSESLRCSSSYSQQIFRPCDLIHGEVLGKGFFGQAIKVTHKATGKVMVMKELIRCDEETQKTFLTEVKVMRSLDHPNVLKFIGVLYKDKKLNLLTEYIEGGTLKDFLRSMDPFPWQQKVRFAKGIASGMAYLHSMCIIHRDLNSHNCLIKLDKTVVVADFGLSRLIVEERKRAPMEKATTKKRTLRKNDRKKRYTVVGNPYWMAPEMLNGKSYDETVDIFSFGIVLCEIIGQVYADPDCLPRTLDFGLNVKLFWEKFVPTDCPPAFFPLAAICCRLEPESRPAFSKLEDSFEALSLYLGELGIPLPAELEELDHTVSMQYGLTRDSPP

“flag-SecPH (p3XFlag-SecPH) (domain or fragment)” showed a kinase activity of anti-HA-LIMK2 immunoprecipitate on GST-cofilin (32P, P-cofilin), cells cotransfected with SecPH against the control Galectin-3 of 20%.

From paper PMC3474823
